This is an account of results in paper doi:10.1101/2022.09.08.507146, “Cytomotive actins and tubulins share a polymerisation switch mechanism conferring robust dynamics” (bioRxiv, 2022).

The data set deals with the molecule itself. The data set is described as follows: cryo-EM structure; BtubA*B single protofilaments, 0.21 mg/mL in HMK100 pH 7.7 with 0.5 mM GMPCPP, 45 s at 20 °C.

B1: Prosthecobacter dejongeii BtubA*B heterodimer (BtubA* R284G, R286D, F287G with BtubB) (complex)
chain 1: MKVNNTIVVSIGQAGNQIAASFWKTVCLEHGIDPLTGQTAPGVAPRGNWSSFFSKLGESSSGSYVPRAIMVDLEPSVIDNVKATSGSLFNPANLISRTEGAGGNFAVGYLGAGREVLPEVMSRLDYEIDKCDNVGGIIVLHAIGGGTGSGFGALLIESLKEKYGEIPVLSCAVLPSPQVSSVVTEPYNTVFALNTLRRSADACLIFDNEALFDLAHRKWNIESPTVDDLNLLITEALAGITASMRFSGFLTVEISLRELLTNLVPQPSLHFLMCAFAPLTPPDGSDGEELGIEEMIKSLFDNGSVFAACSPMEGRFLSTAVLYRGIMEDKPLADAALAAMREKLPLTYWIPTAFKIGYVEQPGISHRKSMVLLANNTEIARVLDRICHNFDKLWQRKAFANWYLNEGMSEEQINVLRASAQELVQSYQVAEESGAKAKVQDSAGDTGMRAAAAGVSDDARGSMSLRDLVDRRR
chain 2: MREILSIHVGQCGNQIADSFWRLALREHGLTEAGTLKEGSNAAANSNMEVFFHKVRDGKYVPRAVLVDLEPGVIARIEGGDMSQLFDESSIVRKIPGAANNWARGYNVEGEKVIDQIMNVIDSAVEKTKGLQGFLMTHSIGGGSGSGLGSLILERLRQAYPKKRIFTFSVVPSPLISDSAVEPYNAILTLQRILDNADGAVLLDNEALFRIAKAKLNRSPNYMDLNNIIALIVSSVTASLRFPGKLNTDLSEFVTNLVPFPGNHFLTASFAPMRGAGQEGQVRTNFPDLARETFAQDNFTAAIDWQQGVYLAASALFRGDVKAKDVDENMATIRKSLNYASYMPASGGLKLGYAETAPEGFASSGLALVNHTGIAAVFERLIAQFDIMFDNHAYTHWYENAGVSRDMMAKARNQIATLAQSYRDAS
notes: BtubA*, as m5; BtubB, as m6; The heterodimer as the unit that polymerises into single protofilaments; also called BtubA*B M-loop mutant; mutant BtubAB; source: E. coli C41(DE3), co-expressed and co-purified (HiTrap Q XL, Sephacryl S300, Mono Q)
B1: the binding result is “binds”.
